biological target: T1, HLA-A*02:01 (human); assay: UV-ligand exchange, anti-β2m ELISA; grade of peptide exchange yield
T1 construct: the tested peptide takes its place; also called peptide-receptive MHC molecules; MHC class I
Text: Candidate peptides for T cell based therapies according to the present invention were further tested for their MHC binding capacity (affinity). The individual peptide-MHC complexes were produced by UV-ligand exchange, where a UV-sensitive peptide is cleaved upon UV-irradiation, and exchanged with the peptide of interest as analyzed. Only peptide candidates that can effectively bind and stabilize the peptide-receptive MHC molecules prevent dissociation of the MHC complexes. To determine the yield of the exchange reaction, an ELISA was performed based on the detection of the light chain (β2m) of stabilized MHC complexes. The assay was performed as generally described in Rodenko et al. (Rodenko et al., 2006).
96 well MAXISorp plates (NUNC) were coated over night with 2 ug/ml streptavidin in PBS at room temperature, washed 4× and blocked for 1h at 37° C. in 2% BSA containing blocking buffer. Refolded HLA-A*02:01/MLA-001 monomers served as standards, covering the range of 15-500 ng/ml. Peptide-MHC monomers of the UV-exchange reaction were diluted 100 fold in blocking buffer. Samples were incubated for 1 h at 37° C., washed four times, incubated with 2 ug/ml HRP conjugated anti-β2m for 1h at 37° C., washed again and detected with TMB solution that is stopped with […]. Absorption was measured at 450 nm. Candidate peptides that show a high exchange yield (preferably higher than 50%, most preferred higher than 75%) are generally preferred for a generation and production of antibodies or fragments thereof, and/or T cell receptors or fragments thereof, as they show sufficient avidity to the MHC molecules and prevent dissociation of the MHC complexes.

Row | peptide exchange yield [%] | Binder
1 | 50 to 75 | FVYGGPQVQL [FVYGGPQVQL (SEQ ID NO: 107)]
2 | 20 to 50 | ALYYNPHLL [ALYYNPHLL (SEQ ID NO: 11)]
3 | ≥ 75 | SLIEKYFSV [SLIEKYFSV (SEQ ID NO: 158)]
4 | ≥ 75 | VLLPDERTISL [VLLPDERTISL (SEQ ID NO: 160)]
5 | 50 to 75 | SLLDLHTKV [SLLDLHTKV (SEQ ID NO: 159)]
6 | 50 to 75 | FLFGEEPSKL [FLFGEEPSKL (SEQ ID NO: 130)]
7 | 20 to 50 | ILDDVSLTHL [ILDDVSLTHL (SEQ ID NO: 133)]
8 | 50 to 75 | SVDGVIKEV [SVDGVIKEV (SEQ ID NO: 117)]
9 | 50 to 75 | FVWSGTAEA [FVWSGTAEA (SEQ ID NO: 106)]
10 | 50 to 75 | GLIDIENPNRV [GLIDIENPNRV (SEQ ID NO: 20)]
11 | 50 to 75 | LMMSEDRISL [LMMSEDRISL (SEQ ID NO: 113)]
12 | 20 to 50 | FIDSSNPGL [FIDSSNPGL (SEQ ID NO: 13)]
13 | 50 to 75 | FLSEVFHQA [FLSEVFHQA (SEQ ID NO: 105)]
14 | 50 to 75 | LLLDPDTAVLKL [LLLDPDTAVLKL (SEQ ID NO: 155)]
15 | 50 to 75 | LLLPPPPCPA [LLLPPPPCPA (SEQ ID NO: 156)]
16 | 20 to 50 | FVDTRTLL [FVDTRTLL (SEQ ID NO: 1)]
17 | 50 to 75 | ILGTEDLIVEV [ILGTEDLIVEV (SEQ ID NO: 149)]
18 | 50 to 75 | FLWAGGRASYGV [FLWAGGRASYGV (SEQ ID NO: 132)]
19 | 50 to 75 | TTFPRPVTV [TTFPRPVTV (SEQ ID NO: 145)]
20 | 20 to 50 | YAFPKAVSV [YAFPKAVSV (SEQ ID NO: 147)]
21 | 50 to 75 | ALWHDAENQTVV [ALWHDAENQTVV (SEQ ID NO: 19)]
22 | 50 to 75 | ALPKEDPTAV [ALPKEDPTAV (SEQ ID NO: 153)]
23 | 50 to 75 | KVADLVLML [KVADLVLML (SEQ ID NO: 154)]

Row | peptide exchange yield [%] | Binder
24 | 50 to 75 | SLLNPPETLNL [SLLNPPETLNL (SEQ ID NO: 140)]
25 | 20 to 50 | ALFVRLLAL [ALFVRLLAL (SEQ ID NO: 18)]
26 | ≥ 75 | ALLSLDPAAV [ALLSLDPAAV (SEQ ID NO: 126)]
27 | 50 to 75 | LLSDVRFVL [LLSDVRFVL (SEQ ID NO: 112)]
28 | 50 to 75 | FGYDGDFYRA [FGYDGDFYRA (SEQ ID NO: 2)]
29 | 20 to 50 | KISTITPQI [KISTITPQI (SEQ ID NO: 123)]
30 | 20 to 50 | YLDEDTIYHL [YLDEDTIYHL (SEQ ID NO: 121)]
31 | ≥ 75 | SMMDPNHFL [SMMDPNHFL (SEQ ID NO: 116)]
32 | 20 to 50 | YLHNQGIGV [YLHNQGIGV (SEQ ID NO: 148)]
33 | 20 to 50 | TAVALLRLL [TAVALLRLL (SEQ ID NO: 144)]
34 | 50 to 75 | FLQPDLDSL [FLQPDLDSL (SEQ ID NO: 104)]
35 | 50 to 75 | AQYKFVYQV [AQYKFVYQV (SEQ ID NO: 12)]
36 | 50 to 75 | ALFEESGLIRI [ALFEESGLIRI (SEQ ID NO: 124)]
37 | 50 to 75 | MLLEIPYMAA [MLLEIPYMAA (SEQ ID NO: 157)]
38 | 50 to 75 | ILLAEGRLVNL [ILLAEGRLVNL (SEQ ID NO: 134)]
39 | 50 to 75 | ALYDVRTILL [ALYDVRTILL (SEQ ID NO: 128)]
40 | ≥ 75 | KLFPGFEIETV [KLFPGFEIETV (SEQ ID NO: 136)]
41 | ≥ 75 | ALFQPHLINV [ALFQPHLINV (SEQ ID NO: 150)]
42 | 50 to 75 | SLFPHNPQFI [SLFPHNPQFI (SEQ ID NO: 114)]
43 | 50 to 75 | TLWYRPPEL [TLWYRPPEL (SEQ ID NO: 118)]
44 | 50 to 75 | FILANEHNV [FILANEHNV (SEQ ID NO: 15)]
45 | ≥ 75 | ALSDLALHFL [ALSDLALHFL (SEQ ID NO: 127)]
46 | 50 to 75 | FLIEEQKIVV [FLIEEQKIVV (SEQ ID NO: 131)]

Row | peptide exchange yield [%] | Binder
47 | 50 to 75 | ILLTGTPAL [ILLTGTPAL (SEQ ID NO: 110)]
48 | 50 to 75 | YLPDIIKDQKA [YLPDIIKDQKA (SEQ ID NO: 161)]
49 | 50 to 75 | SIDRNPPQL [SIDRNPPQL (SEQ ID NO: 139)]
50 | 50 to 75 | VLGDDPQLMKV [VLGDDPQLMKV (SEQ ID NO: 119)]
51 | 50 to 75 | ALYEKDNTYL [ALYEKDNTYL (SEQ ID NO: 129)]
52 | ≥ 75 | ILASVILNV [ILASVILNV (SEQ ID NO: 109)]
53 | 50 to 75 | SLMDPNKFLLL [SLMDPNKFLLL (SEQ ID NO: 115)]
54 | 50 to 75 | NIFPNPEATFV [NIFPNPEATFV (SEQ ID NO: 138)]
55 | 50 to 75 | FIIDNPQDLKV [FIIDNPQDLKV (SEQ ID NO: 14)]
56 | ≥ 75 | MQAPRAALVFA [MQAPRAALVFA (SEQ ID NO: 122)]
57 | 50 to 75 | LLLAAARLAAA [LLLAAARLAAA (SEQ ID NO: 111)]
58 | 20 to 50 | VLLDKIKNL [VLLDKIKNL (SEQ ID NO: 10)]
59 | ≥ 75 | ALLEPEFILKA [ALLEPEFILKA (SEQ ID NO: 152)]
60 | 50 to 75 | VLISGVVHEI [VLISGVVHEI (SEQ ID NO: 146)]
61 | 50 to 75 | GLIDYDTGIRL [GLIDYDTGIRL (SEQ ID NO: 17)]
62 | 50 to 75 | KLGPEGELL [KLGPEGELL (SEQ ID NO: 137)]
63 | ≥ 75 | ALLDIIRSL [ALLDIIRSL (SEQ ID NO: 151)]
64 | 50 to 75 | GLIDYDTGI [GLIDYDTGI (SEQ ID NO: 16)]
65 | 50 to 75 | ALLGKLDAINV [ALLGKLDAINV (SEQ ID NO: 125)]
66 | 50 to 75 | KLDDTYIKA [KLDDTYIKA (SEQ ID NO: 135)]
67 | 50 to 75 | SLYGYLRGA [SLYGYLRGA (SEQ ID NO: 142)]

— patent US20160368965A1 (IMMATICS BIOTECHNOLOGIES, published 2016)
